Biological target: T1, release factor RF2 (E. coli (K12 strain), UniProt P07012 1-365)
T1 sequence: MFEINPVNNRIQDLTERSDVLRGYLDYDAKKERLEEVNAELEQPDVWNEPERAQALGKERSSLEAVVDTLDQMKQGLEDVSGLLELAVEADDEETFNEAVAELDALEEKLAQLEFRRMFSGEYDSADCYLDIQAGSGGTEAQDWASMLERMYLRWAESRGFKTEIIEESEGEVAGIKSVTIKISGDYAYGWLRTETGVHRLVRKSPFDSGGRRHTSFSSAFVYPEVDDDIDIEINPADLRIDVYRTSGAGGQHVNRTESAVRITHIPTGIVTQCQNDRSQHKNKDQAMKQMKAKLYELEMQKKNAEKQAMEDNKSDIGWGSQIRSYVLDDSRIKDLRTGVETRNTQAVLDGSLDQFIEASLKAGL
Assay: cryo-EM structure

B1: ArfA (alternative rescue factor A) (natural protein, E. coli, UniProt P36675 1-60, looked up)
chain: MSRYQHTKGQIKDNAIEALLHDPLFRQRVEKNKKGKGSYMRKGKHGNRGNWEASGKKVNH
B1: binds.
